Assays:
[1] = target: T1, gp140^prototrk (Rattus norvegicus, UniProt P35739); assay: trk tyrosine phosphorylation in PC12 cells treated with NGF (32P labelling / Ptyr immunoblot of trk immunoprecipitates); type: cell-based
T1 construct: tyrosine phosphorylation in response to NGF addition to PC12 cells; endogenous in cells; host or cells: PC12 cells
Method: FIGS. 1A-C show the tyrosine phosphorylation of gp140trk in PC12 cells and trk-expressing NIH-3T3 cells treated with NGF. FIG. 1A, gp140trk immunoprecipitated from PC12 cells or trk-expressing 3T3 cells labeled with ^32 P-orthophosphate. Immunoprecipitates were prepared with rabbit anti-trk antisera 43-4 (D. Martin-Zanca et al., Mol Cell. Biol. 9:24-33 (1989)) from lysates prepared from 3T3 cells expressing the rat trk gene (trk 3T3) (lane 1) or PC12 cells treated for 5 min with 100 ng/ml NGF at 37° C. (lanes 2 and 4) or mock treated (lane 3). The immunoprecipitate shown in lane 2 was prepared in the presence of the peptide used to generate the rabbit 43-4 trk antibody (Martin-Zanca et al., (1989)). Shown in FIG. 1B is the phosphoamino acid analysis of trk proteins phosphorylated in vitro in p140trk immunoprecipitates from NGF treated PC12 cells in vivo from NGF treated (+) or untreated (-) PC12 cells, or in vivo from trk 3T3 cells. The positions of phosphoserine (S), phosphothreonine (T), and phosphotyrosine (Y) are indicated. FIG. 1C, trk proteins from trk 3T3 cells phosphorylated […]. In lanes 1-3, gp140trk immunoprecipitates were probed with P-tyr antibodies. In lanes 4-6, gp140trk proteins were phosphorylated in vitro in kinase assays. Cells were treated with suramin (lanes 2 and 5) or with 500 ng/ml NGF for 10 min following suramin treatment. The band migrating at 110 kDa is a glycosylation precursor of gp140^prototrk (Martin-Zanca et al., (1989)). The band at the bottom of the figure is IgG. Molecular weight markers in kDa are indicated.
rtrk 3T3 cells were generated by CaPO4 mediated transfection of a rat trk cDNA into NIH-3T3 cells. Rat trk cDNAs were obtained from an embryonic rat DRG cDNA library. The longest trk cDNA obtained (2.4 kbp) was missing approximately 150 bp of the coding region as compared to available mouse and human trk sequence. The missing bases plus minimal (~50 bp) 5' flanking non-coding sequences were replaced from mouse first coding exon sequences and the reconstructed gene was placed downstream of an MSV-LTR. PC12 cells or rtrk 3T3 cells (2×10^7) were labeled with ^32 P orthophosphate (1 mCi.ml in 4 ml) for 4 hr at 37° C. Cells were treated with NGF for the indicated times, washed, lysed in buffer containing 1% NP40, and the lysates immunoprecipitated with trk antibody 43-4 (D. R. Kaplan et al., Cell 61:125-133 (1990)) and electrophoresed on 7.5% SDS-PAGE gels as previously described (Kaplan et al., (1990)). For b, the phosphorylated trk bands were eluted from the gel and phosphoamino acid analysis performed as described (B. M. Sefton et al., J. Cell 24:165-174 (1981)). gp140trk protein from NGF treated PC12 cells was phosphorylated in vitro. For c, rtrk 3T3 cells were treated with 1 mM suramin in Dulbecco's Modified Eagle Medium (DMEM) for 2 h or mock treated. Following extensive washing of the cells with DMEM, NGF was added for the time indicated. Cells were lysed and the lysates were immunoprecipitated with trk antibody. Immunoprecipitates were either subjected to immunoblot analysis with the phosphotyrosine (Ptyr) monoclonal antibody 4G10 (Lanes 1-3), or were analyzed in kinase assays. (D. K. Morrison, et al. Cell 58:649-657 (1989) and Kaplan et al., (1990)). Similar amounts of trk protein were present in each lane.
FIGS. 2A-C. Time course, growth factor specificity, and dose response of trk tyrosine phosphorylation in PC12 cells. A, Time course of trk tyrosine phosphorylation. Cells (2×10^7) were treated with 50 ng/ml NGF at 37° C. B, Effects of growth and differentiation factors on trk tyrosine phosphorylation. Cells were treated with 100 ng/ml NGF, 100 ng/ml basic fibroblast growth factor (FGF) (Boehringer Mannheim Biochemicals), 100 ng/ml epidermal growth factor (EGF) (Upstate Biotechnology, Inc.), 100 nM insulin (Sigma), or 1 μg/ml phorbal 12-myristate […] (PMA) (Sigma) for 15 min. at 37° C. C, dose response of trk tyrosine phosphorylation. […]

[2] = system: trk; assay: Growth factor stimulation of trk transfected 3T3 cells (pJM7-23), COS cell supernatants, Ptyr blot; type: cell-based; settings: trk-expressing 3T3 cells (pJM7-23), 100 μl/ml NGF-COS cell supernatant, 10 minutes at 37° C.
Method: To study growth factor stimulation in cells transfected with trkB, NIH 3T3 trk transfected 3T3 (pJM7-23), trkB transfected 3T3 cells (pJM8-3) and non-transfected 3T3 cells (control cells) were exposed to media or media containing 100 μl/ml of NGF-COS cell supernatant, 100 μl/ml NT-3 COS cell supernatant, 5 μl/ml human platelet extract, or 50 μl/ml human platelet extract, for 10 minutes at 37° C. The plates were rinsed, lysed, and the trk or trkB was immunoprecipitated with rabbit antisera 443 and protein A Sepharose in the presence or absence of 10 μg/ml blocking peptide. After washing, the beads were denatured in sample buffer, the proteins were separated on a 7.5% gel and transferred to nitrocellulose. The blots were blocked with 2% BSA and probed with an antiphosphotyrosine monoclonal antibody (4G10). After binding of alkaline phosphate-conjugatedrabbit-anti-mouse antibody, the blots were washed and developed with BCIP and NBT.

[3] = target: T1, gp140^prototrk; settings: PC12 cells, after NGF administration (Kaplan et al., 1991); cited from earlier work

T1 sequence (P35739 33-799): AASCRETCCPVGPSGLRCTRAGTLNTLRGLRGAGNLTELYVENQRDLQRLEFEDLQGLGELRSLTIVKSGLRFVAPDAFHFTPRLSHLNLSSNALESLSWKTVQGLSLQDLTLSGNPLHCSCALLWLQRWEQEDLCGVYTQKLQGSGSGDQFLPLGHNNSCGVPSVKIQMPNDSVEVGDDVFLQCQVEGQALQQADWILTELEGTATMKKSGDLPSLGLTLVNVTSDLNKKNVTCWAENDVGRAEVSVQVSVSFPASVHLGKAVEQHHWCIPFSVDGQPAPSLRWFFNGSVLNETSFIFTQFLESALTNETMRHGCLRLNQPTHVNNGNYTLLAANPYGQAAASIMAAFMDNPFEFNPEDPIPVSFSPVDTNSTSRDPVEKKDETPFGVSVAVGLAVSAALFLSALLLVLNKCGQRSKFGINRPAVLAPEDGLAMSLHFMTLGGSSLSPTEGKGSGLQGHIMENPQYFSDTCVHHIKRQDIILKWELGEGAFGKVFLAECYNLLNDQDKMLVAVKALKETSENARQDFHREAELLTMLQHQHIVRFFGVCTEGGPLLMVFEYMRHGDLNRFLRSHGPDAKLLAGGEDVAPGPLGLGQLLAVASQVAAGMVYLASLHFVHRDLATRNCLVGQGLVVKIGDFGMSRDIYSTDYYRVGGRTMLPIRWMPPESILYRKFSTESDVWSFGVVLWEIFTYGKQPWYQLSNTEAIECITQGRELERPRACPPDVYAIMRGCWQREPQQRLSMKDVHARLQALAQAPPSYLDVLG

For “NGF: neurotrophic polypeptide factor, nerve growth factor; ligand of trk proto-oncogene receptor”, the “time to maximum levels of trk tyrosine phosphorylation” value ([1]; 50 ng/ml NGF, 37° C.) was “five”, the “stimulation of tyrosine phosphorylation of gp140^prototrk” value ([1]; 32P-orthophosphate labelled, 50 ng/ml NGF for 5 min) was 20 fold and the “half maximal tyrosine phosphorylation concentration” value ([1]; 30 min at 37° C., dose response) was 0.1 ng/mL. The “trk tyrosine phosphorylation after two days of treatment” value ([1]; fully differentiated, two days of NGF) was “Residual phosphorylation was detected”, the “stimulation of trk tyrosine phosphorylation” value [2] was “stimulated” and the “time to appearance of trk tyrosine phosphorylation” value [3] was 1 min.
